9 sequences from the Immune Epitope Database (IEDB) can be followed below.

Experiment [1] concerns the target HLA-A*01:01. The experiment is described as follows: IEDB peptide-MHC binding, purified MHC/direct/fluorescence; filed as Kd, often an IC50 or EC50 that approximates it; ≥ and ≤ were set here for values at or beyond the usual limits of such assays.
Experiment [2] deals with HLA-A*02:01. The experiment is described as above.
The target of a further experiment is HLA-A*02:11. Described as above. The conditions noted are these: source organism: Mycobacterium tuberculosis str. Haarlem.
Experiment [3] concerns the target HLA-A*02:12. The experiment is described as above. Conditions: source organism: Mycobacterium tuberculosis str. Haarlem.
The target in a further experiment is HLA-A*03:01. Described as above.
The next experiment has as its target HLA-A*11:01. The description is as above.
The next experiment deals with HLA-A*26:01. The description is as above. The conditions noted are these: source organism: Mycobacterium tuberculosis str. Haarlem.
In another experiment the target is HLA-A*31:01. The description is as above.
The next experiment has as its target HLA-A*69:01. The description is as above.
Another experiment has as its target HLA-B*15:01. Described as above.
In the next experiment the target is HLA-B*15:09. The description is as above. Conditions: source organism: Mycobacterium tuberculosis str. Haarlem.
A further experiment addresses HLA-B*15:17. The description is as above.
In another experiment the target is HLA-B*18:01. The description is as above.
The target of the next experiment is HLA-B*27:05. Described as above.
A further experiment addresses HLA-B*39:01. The experiment is described as above. The conditions noted are these: source organism: Mycobacterium tuberculosis str. Haarlem.
The next experiment concerns the target HLA-B*40:01. The description is as above.
The target in another experiment is HLA-B*46:01. The experiment is described as above.
For a further experiment, the target named is HLA-B*48:01. Described as above.
In another experiment the target is HLA-B*51:01. Described as above.
The next experiment addresses HLA-B*57:01. Described as above.
Another experiment has as its target HLA-B*58:01. The experiment is described as above.
The target in another experiment is HLA-B*08:02. Described as above.
The target of another experiment is HLA-B*44:02. The experiment is described as above. Conditions: source organism: Yellow fever virus.
In experiment [4] the target is HLA-A*02:01. The experiment is described as follows: IEDB peptide-MHC binding, purified MHC/competitive/fluorescence; filed as Kd, often an IC50 or EC50 that approximates it; ≥ and ≤ were set here for values at or beyond the usual limits of such assays.
The next experiment deals with HLA-A*02:16. Described as above. The conditions noted are these: source organism: Entamoeba histolytica HM-1:IMSS.
The next experiment concerns the target HLA-B*15:42. The experiment is described as above.
The target in the next experiment is HLA-B*45:06. Described as above.
The target of a further experiment is HLA-B*83:01. The description is as above.
The target of a further experiment is HLA-C*04:01. Described as above.
The target of experiment [5] is HLA-A*01:01. The description is as above. The conditions noted are these: source organism: Mycobacterium tuberculosis variant bovis BCG str. Pasteur 1173P2.
Experiment [6] has as its target HLA-A*02:12. Described as above. Conditions: source organism: Giardia lamblia ATCC 50803.
In another experiment the target is HLA-C*05:01. The experiment can be described thus: IEDB peptide-MHC binding, purified MHC/direct/fluorescence; filed as Kd, often an IC50 or EC50 that approximates it; ≥ and ≤ were set here for values at or beyond the usual limits of such assays. The conditions noted are these: source organism: Rattus norvegicus.
Another experiment concerns the target HLA-B*07:02. Described as above. Conditions: source organism: Yellow fever virus.
[7] abbreviates: source organism: Burkholderia mallei.
Setting [8] is: source organism: Yellow fever virus.
Setting [9] is: source organism: West Nile virus.
The mark [10] stands for this setting: source organism: Mycobacterium tuberculosis C.
Setting [11] is: source organism: Mycobacterium tuberculosis.

In general, Kd refers to the free concentration of one partner at which half of the binding sites on the other are occupied at equilibrium, for simple one-to-one binding. Lower therefore signals a tighter complex.

Consider APAKKAAAK, for which the Kd with HLA-A*01:01 [1] (setting [7]), with HLA-A*02:01 [2] (setting [7]), with HLA-A*02:11, in the experiment with HLA-A*02:12 [3], in the experiment with HLA-A*03:01 (setting [7]) and in the experiment with HLA-A*11:01 (setting [7]) was not below 20 µM throughout. Besides, the Kd with HLA-A*26:01, in the experiment with HLA-A*31:01 (setting [7]), in the experiment with HLA-A*69:01 (setting [7]), with HLA-B*15:01 (setting [7]), with HLA-B*15:09 and with HLA-B*15:17 (setting [7]) was not below 20 µM throughout. Moreover, the Kd with HLA-B*18:01 (setting [7]), with HLA-B*27:05 (setting [7]), in the experiment with HLA-B*39:01, with HLA-B*40:01 (setting [7]), with HLA-B*46:01 (setting [7]) and with HLA-B*48:01 (setting [7]) was not below 20 µM throughout. In addition, the dissociation constant Kd with HLA-B*51:01 (setting [7]), with HLA-B*57:01 (setting [7]) and in the experiment with HLA-B*58:01 (setting [7]) was not below 20 µM in each case.

Take EVRLATMLF: the dissociation constant (Kd) in the experiment with HLA-A*01:01 [1] (setting [8]), with HLA-A*02:01 [2] (setting [8]), with HLA-A*03:01 (setting [8]), with HLA-A*11:01 (setting [8]), with HLA-A*31:01 (setting [8]) and with HLA-B*08:02 (setting [8]) was not below 20 µM throughout. In addition, the dissociation constant (Kd) in the experiment with HLA-B*27:05 (setting [8]), with HLA-B*40:01 (setting [8]), with HLA-B*44:02, in the experiment with HLA-B*46:01 (setting [8]), with HLA-B*48:01 (setting [8]) and with HLA-B*57:01 (setting [8]) was not below 20 µM in each case. In the experiment with HLA-B*58:01 (setting [8]), this sequence showed a Kd not below 20 µM.

FHFNPLPNV: the Kd with HLA-A*02:01 [4] (source organism: Entamoeba histolytica HM-1:IMSS) was 0.115 µM; with HLA-A*02:16, 0.129 µM.

As for REWFMDLNL, the Kd is 1.36 µM in the experiment with HLA-B*18:01 (setting [9]); not below 5 µM in the experiment with HLA-B*15:42 (setting [9]); not below 5 µM in the experiment with HLA-B*45:06 (setting [9]); not below 5 µM with HLA-B*83:01 (setting [9]); not below 5 µM with HLA-C*04:01 (setting [9]).

Take RLYELIGSV: the Kd in the experiment with HLA-B*15:42 (setting [10]), in the experiment with HLA-B*45:06 (setting [10]), with HLA-B*83:01 (setting [10]) and in the experiment with HLA-C*04:01 (setting [10]) was not below 5 µM in each case.

On to SPREECGVF, for which the Kd in the experiment with HLA-A*02:01 [2] (setting [11]), with HLA-A*03:01 (setting [11]), with HLA-A*11:01 (setting [11]), with HLA-A*26:01, in the experiment with HLA-A*31:01 (setting [11]) and in the experiment with HLA-A*69:01 (setting [11]) was not below 20 µM each time. The Kd is not below 20 µM with HLA-B*08:02 (source organism: Mycobacterium tuberculosis str. Haarlem); 1.2 µM with HLA-B*15:01 (setting [11]); not below 20 µM with HLA-B*15:09; not below 20 µM with HLA-B*15:17 (setting [11]); not below 20 µM in the experiment with HLA-B*18:01 (setting [11]); not below 20 µM with HLA-B*27:05 (setting [11]). For the same sequence, the Kd in the experiment with HLA-B*40:01 (setting [11]), in the experiment with HLA-B*46:01 (setting [11]), with HLA-B*48:01 (setting [11]), with HLA-B*51:01 (setting [11]), with HLA-B*57:01 (setting [11]) and with HLA-B*58:01 (setting [11]) was not below 20 µM each time. The Kd with HLA-A*01:01 [5] was not below 20 µM.

In the case of SVFQGALFA, the Kd stood at 1.89 µM in the experiment with HLA-A*02:01 [4] (source organism: Giardia lamblia ATCC 50803) and 11 µM in the experiment with HLA-A*02:12 [6].

For the sequence YFDPANGKF, the Kd with HLA-A*01:01 [1] (source organism: Homo sapiens) is 3.6 µM; with HLA-A*02:01 [2] (source organism: Homo sapiens), not below 22.7 µM; in the experiment with HLA-A*11:01 (source organism: Homo sapiens), not below 44.1 µM; with HLA-A*69:01 (source organism: Homo sapiens), not below 28.4 µM; with HLA-C*05:01, 0.109 µM; with HLA-C*04:01 (source organism: Rattus norvegicus), 0.0015 µM.

Regarding YFHKRDMRL, the Kd in the experiment with HLA-A*01:01 [1] (setting [8]) is not below 20 µM; with HLA-A*03:01 (setting [8]), not below 20 µM; with HLA-A*11:01 (setting [8]), not below 20 µM; with HLA-A*69:01 (setting [8]) it was not below 20 µM; with HLA-B*07:02, not below 20 µM; in the experiment with HLA-B*08:02 (setting [8]), 4.63 µM. The Kd with HLA-B*15:01 (setting [8]), with HLA-B*18:01 (setting [8]), in the experiment with HLA-B*27:05 (setting [8]), with HLA-B*40:01 (setting [8]), in the experiment with HLA-B*44:02 and with HLA-B*46:01 (setting [8]) was not below 20 µM in each case. The Kd with HLA-B*48:01 (setting [8]), with HLA-B*57:01 (setting [8]) and with HLA-B*58:01 (setting [8]) was not below 20 µM each time.
